Data as given in the supplement of paper PMC11865577.

Tests used:
Test in all cases: pull-down binding Z-score (relative to library population); higher = stronger binding
Details in all cases: RNA library: Library-2
[1] = system: TO-3-N3 (biotin conjugate)
Method in brief: (§1)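 Binding is given as a Z-score against the library mean and standard deviation, calculated after removing the beads-only signal and averaging barcoded replicate probes without their highest and lowest values. Cy5- or Cy3-end-labelled RNA library (1 μg) was heat-folded in phosphate/NaCl/KCl buffer and incubated 60 min at 25 °C with streptavidin beads bearing 100 pmol of biotin-conjugated small molecule. After three washes, RNA eluted in hot SDS was hybridised to a DNA barcode microarray for 20 h at 55.5 °C.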

TO-N3 (biotin conjugate) = system: TO-N3 (biotin conjugate)
Method in brief: as §1

[2] = system: TO-N3-2 (biotin conjugate)
Method in brief: as §1

[3] = system: TO-3-N3-2 (biotin conjugate)
Method in brief: as §1

Row | Sequence | pull-down binding Z-score [1] | pull-down binding Z-score (TO-N3 (biotin conjugate)) | pull-down binding Z-score [2] | pull-down binding Z-score [3]
1 | CUGACUUAACAAAGCCUUACAUUAAGUGGGAUUUGUUAAAAUAUGACUUCACGGAAGAGAGGUUAAAACUCUUUGACCGUUAUUUUAAAUAUUGG | -0.707 | -0.517 | -0.193 | -0.143
2 | CUGAUCCUAGUUUUCUGGGUAG [SHAPE_invivo_SARS-CoV-2_Motif_108] | -0.135 | -0.0828 | -0.359 | -0.369
3 | CUGCACUGUUAGCGGGUACAAUCACUUCUGGUUGGACCUUUGGUGCAG [SHAPE_invitro_SARS-CoV-2_Motif_437] | -0.428 | -0.574 | -0.738 | -0.189
4 | CUGCAGAUGCAG [IAV_invivo_HA_4_Motif_2+IAV_invivo_HA_4_Motif_2] | -0.112 | -0.419 | -1.28 | -0.317
5 | CUGCCUAUAUGGAAG | -0.492 | -0.773 | -0.645 | -0.364
6 | CUGCUUUUGGCUUAGUUGCAG | 0.285 | 0.125 | -0.231 | 0.206
7 | CUGGAAUUGCCGUUUUAG [SHAPE_invivo_SARS-CoV-2_Motif_210] | 0.0793 | -0.0237 | -0.115 | -0.112
8 | CUGGACUCUAAAUAGAAACCAACCUGCUGCAACAGCAUUGGCCAACACAAUAGAAGUGUUCAGAUCAAAUGGCCUCACGGCCAAUGAGUCUGG | -0.791 | -0.231 | 0.269 | -0.486
9 | CUGGCAGUAACCAG [SHAPE_invivo_SARS-CoV-2_Motif_538] | -0.215 | -0.233 | -0.733 | -0.422
10 | CUGGGAAACUGUUAAAAUUCAGUGGUCCCAG [IAV_invivo_PB2_1_Motif_27+IAV_invivo_PB2_1_Motif_27] | -0.682 | -0.972 | -0.97 | -0.0981
11 | CUGGGCCAUAAGGACCAG [IAV_invivo_NP_5_Motif_20+IAV_invivo_NP_5_Motif_20] | -0.0792 | -0.418 | -0.786 | -0.477
12 | CUGGGGGCAAUCAGUUUCUGG [IAV_invivo_HA_4_Motif_20+IAV_invivo_HA_4_Motif_20] | 1.05 | 0.946 | -0.107 | -0.0228
13 | CUGGUCCAUGCUCAUACCCAAGCAGAAAGUGGCAGGCCCUCUUUGUAUCAGAAUGGACCAG [IAV_invivo_NS1_NEP_8_Motif_8+IAV_invivo_NS1_NEP_8_Motif_8] | -0.528 | -0.453 | 0.562 | -0.24
14 | CUGUAGCUGCAUUUCACCAAGAAUGUAGUUUACAG [DMSMaPseq_invitro_SARS-CoV-2_Motif_500] | 0.437 | 0.121 | -0.632 | -0.0203
15 | CUGUCACUAAG | -0.404 | -0.36 | -0.584 | -0.0755
16 | CUGUCAUGGAAGCAAGUACUGGCAG [IAV_invivo_PA_3_Motif_16+IAV_invivo_PA_3_Motif_16] | 0.591 | 0.596 | 0.323 | 0.12
17 | CUGUCCAAGACAUGUGAUCUGCACCUCUGAAGACAUGCUUAACCCUAAUUAUGAAGAUUUACUCAUUCGUAAGUCUAAUCAUAAUUUCUUGGUACAG | -0.274 | -0.347 | -0.0124 | -0.739
18 | CUGUGGGUUUUACACUUAAAAACACAG [DMSMaPseq_invitro_SARS-CoV-2_Motif_239] | -0.233 | -0.32 | -0.754 | -0.131
19 | CUGUUAAUGUAGCAUUUGAGCUUUGGGCUAAGCGCAACAUUAAACCAG | 0.0322 | 0.38 | 0.335 | -0.268
20 | CUGUUCCACCAUUGAAGAGCUCAG [IAV_invivo_PB1_2_Motif_38+IAV_invivo_PB1_2_Motif_38] | -0.372 | 0.134 | 0.457 | -0.178
21 | CUGUUGAUUCAUCACAG | 1.37 | 1.14 | -0.421 | 0.174
22 | CUGUUGGUACCAAUUUACCUUUACAGCUAGGUUUUUCUACAGGUGUUAACCUAGUUGCUGUACCUACAG | -0.959 | -1.16 | -1.02 | -0.514
23 | CUGUUUGGAUGACAG | -0.461 | -0.871 | -1.01 | -0.753
24 | CUGUUUUUCAG | -0.739 | -1.23 | -1.53 | -0.661
25 | CUUACUGACAAUGUAUACAUUAAAAAUGCAGACAUUGUGGAAG [DMSMaPseq_invitro_SARS-CoV-2_Motif_59] | -0.453 | -0.328 | -0.455 | -0.18

Row | Sequence | pull-down binding Z-score [1] | pull-down binding Z-score (TO-N3 (biotin conjugate)) | pull-down binding Z-score [2] | pull-down binding Z-score [3]
26 | CUUAGCUGUCUUUGAUAAAAAUCUCUAUGACAAACUUGUUUCAAGCUUUUUGGAAAUGAAGAGUGAAAAGCAAGUUGAACAAAAGAUCGCUGAG [SHAPE_invivo_SARS-CoV-2_Motif_73] | 0.216 | 0.0191 | 0.552 | 0.0166
27 | CUUAGGGACAACCUUGAACCUGGG [IAV_invivo_PA_3_Motif_29+IAV_invivo_PA_3_Motif_29] | -0.637 | -0.557 | 0.0467 | -0.446
28 | CUUAGUUUUAAG [DMSMaPseq_invitro_SARS-CoV-2_Motif_263] | -0.781 | -1.02 | -1.26 | -0.268
29 | CUUAUGUUGGUUGCCAUAACAAGUGUGCCUAUUGGGUUCCACGUGCUAGCGCUAACAUAGG | -1.06 | -1.11 | -0.75 | -0.751
30 | CUUCACAUAUGUAUUGUUCUUUUUACCCUCCAGAUGAGGAUGAAGAAGAAGGUGAUUGUGAAG | -0.494 | -0.606 | -1.19 | -0.0402
31 | CUUCAUUAAAAGAAUUACUGCAAAAUGGUAUGAAUGGACGUACCAUAUUGGGUAGUGCUUUAUUAGAAG | -0.675 | -0.621 | -0.219 | -0.0236
32 | CUUCCGAGUCAUAGGAAACUAUGACAUACAGAUCAACAGGGGCUCGCUUGAGCCCCCCAGCCAGUCGGAGG [mMTR1] | -0.97 | -1.09 | -0.704 | -0.458
33 | CUUCUGCUGCUCUUCAACCUGAAGAAGAGCAAGAAGAAG | -0.349 | -0.368 | -0.79 | -0.22
34 | CUUCUUGAAAUACUCCAAAAAGAGAAAGUCAACAUCAAUAUUGUUGGUGACUUUAAACUUAAUGAAG | 0.115 | -0.0282 | -0.596 | -0.0464
35 | CUUCUUGCAUGUGACUUAUGUCCCUGCACAAGAAAAG [SHAPE_invitro_SARS-CoV-2_Motif_449] | -0.329 | -0.309 | -0.177 | -0.257
36 | CUUGAACAAUGGAACCUAGUAAUAGGUUUCCUAUUCCUUACAUGGAUUUGUCUUCUACAAUUUGCCUAUGCCAACAGG | -0.5 | -0.466 | -0.374 | -0.181
37 | CUUGAACAAUGGAACCUAGUAAUAGGUUUCCUAUUCCUUACAUGGAUUUGUCUUCUACAAUUUGCCUAUGCCAACAGGAAUAGGUUUUUGUAUAUAAUUAAG | -0.828 | -1.12 | -1.14 | -0.369
38 | CUUGAUGAUUUUGUUGAAAUAAUAAAAUCCCAAG | -0.466 | -0.636 | -0.743 | -0.266
39 | CUUGGAAAACUUCAAG | -0.101 | -0.471 | -0.863 | -0.265
40 | CUUUACCAACCACCACAAACCUCUAUCACCUCAGCUGUUUUGCAGAGUGGUUUUAGAAAAAUGGCAUUCCCAUCUGGUAAAG | -0.0485 | -0.0807 | -0.0806 | 0.13
41 | CUUUAGUAAUUACCUAAAGAGACGUGUAGUCUUUAAUGGUGUUUCCUUUAG | -0.924 | -1.09 | -1.17 | -0.575
42 | CUUUAUUAGAAG [DMSMaPseq_invitro_SARS-CoV-2_Motif_195] | -0.165 | -0.39 | -0.806 | -0.21
43 | CUUUGAUAAAGCUGGUCAAAAGACUUAUGAAAG | -0.814 | -0.947 | -0.816 | -0.4
44 | CUUUGUAUUGCAUAGACGGUGCUUUACUUACAAAGUCCUCAGAAUACAAAG | -0.811 | -1.28 | -1.1 | -0.719
45 | CUUUUAUGUCUAUGCUAAUGGAGGUAAAGG [SHAPE_invivo_SARS-CoV-2_Motif_154] | -0.524 | -0.68 | -0.771 | -0.487
46 | CUUUUGAAGAAG [SHAPE_invivo_SARS-CoV-2_Motif_195] | -0.686 | -1.16 | -1.33 | -0.577
47 | GAAAAGAACAAUCAAGGGUACACACCACUGGUUGUUACUCACAAUUUUGACUUCACUUUUAGUUUUAGUCCAGAGUACUCAAUGGUCUUUGUUCUUUUU | -0.824 | -0.121 | 0.0117 | -0.0313
48 | GAAAAUGACUCUAAAGAGGGUUUUUUC [SHAPE_invitro_SARS-CoV-2_Motif_382] | -0.0158 | -0.18 | -0.375 | -0.323
49 | GAAAUACUUGUCACAUACAAUUGUUGUGAUGAUGAUUAUUUC | -1.15 | -1.39 | -1.14 | -0.399
50 | GAAAUUUGACACCUUCAAUGGGGAAUGUCCAAAUUUU [SHAPE_invitro_SARS-CoV-2_Motif_22] | -0.726 | -0.92 | -0.988 | -0.434
